Measurements reported in patent US20040110253A1, “Method for identifying MHC-presented peptide epitopes for T cells” (priority 2002, published 2004).

Legend:
Experiment in all cases: flow cytometry, fluorescent multivalent soluble TCR on infected SF9 cells
[1] = target: IA^b-… displayed on baculovirus-infected SF9 insect cells (mouse; baculovirus)
[2] = target: IA^b-p3K displayed on baculovirus-infected SF9 insect cells (mouse; baculovirus)
[3] = target: IA^b-pEα displayed on baculovirus-infected SF9 insect cells (mouse; baculovirus)
[4] = target: IA^b-… (SEQ ID NO:26) displayed on baculovirus-infected SF9 insect cells (mouse; baculovirus)
[5] = target: IA^b-… (SEQ ID NO:25) displayed on baculovirus-infected SF9 insect cells (mouse; baculovirus)

Substance | TCR Binding (% of p3K) [1] | TCR Binding (% of p3K) [2] | TCR Binding (% of p3K) [3] | TCR Binding (% of p3K) [4] | TCR Binding (% of p3K) [5]
soluble αβTCR of B3K-06, fluorescent multivalent version | 66.8 % of p3K | 100 % of p3K | 0.4 % of p3K |  | 
soluble αβTCR of YAe-62, fluorescent multivalent version |  | 100 % of p3K | 0.3 % of p3K | 54.9 % of p3K | 58.3 % of p3K
